Test results: patent US20230159643A1 (H LUNDBECK A S, published 2023)

Biological target: T1, Sortilin SORTECD_HIS (human, UniProt Q99523 78-755)
T1 construct: also called Sortilin-ECD-His; HIS-tagged Sortilin ECD
T1 sequence: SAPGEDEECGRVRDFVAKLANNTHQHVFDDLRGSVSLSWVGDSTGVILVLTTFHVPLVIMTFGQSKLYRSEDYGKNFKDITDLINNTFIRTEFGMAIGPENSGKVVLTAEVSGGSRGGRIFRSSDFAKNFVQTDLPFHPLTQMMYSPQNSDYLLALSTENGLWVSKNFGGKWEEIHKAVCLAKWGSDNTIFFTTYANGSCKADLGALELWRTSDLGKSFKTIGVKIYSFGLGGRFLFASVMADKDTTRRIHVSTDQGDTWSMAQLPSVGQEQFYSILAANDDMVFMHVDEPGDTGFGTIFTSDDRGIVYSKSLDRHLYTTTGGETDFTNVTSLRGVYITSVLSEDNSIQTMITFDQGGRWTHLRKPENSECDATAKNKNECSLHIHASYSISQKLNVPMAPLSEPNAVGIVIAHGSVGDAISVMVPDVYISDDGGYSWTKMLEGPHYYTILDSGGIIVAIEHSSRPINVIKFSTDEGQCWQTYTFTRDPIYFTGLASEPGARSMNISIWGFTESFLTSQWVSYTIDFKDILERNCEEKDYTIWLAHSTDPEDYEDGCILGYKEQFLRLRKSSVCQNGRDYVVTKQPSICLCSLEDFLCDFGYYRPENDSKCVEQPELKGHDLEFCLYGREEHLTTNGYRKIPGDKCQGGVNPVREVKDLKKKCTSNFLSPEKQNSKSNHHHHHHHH
Assay: HTRF: displacement of PGRN binding to His-tagged Sortilin ECD
Description: Dose-response evaluation of antibodies was performed with ten concentrations covering 50 pM to 1 μM in a 3-fold dilution curve. The half-maximal inhibitory concentration (IC50) values were calculated by non-linear regression using sigmoidal concentration response (variable slope) in XLfit 4 (IDBS, UK).
Experiments were performed in assay buffer (50 mM Phosphate, pH 7.0, 0.1% BSA) in a total volume of 20 μl in a Greiner 384 well, white, low volume microtiter plate, (784075, Greiner).

B1: 1320 (antibody, V domains shown)
VH: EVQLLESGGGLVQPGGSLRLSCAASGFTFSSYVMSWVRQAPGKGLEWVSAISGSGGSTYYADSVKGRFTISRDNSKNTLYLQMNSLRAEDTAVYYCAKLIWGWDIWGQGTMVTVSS
VL: EIVLTQSPATLSLSPGERATLSCRASQSVSSYLAWYQQRPGQAPRLLIYDASNRATGIPARFSGSGSGTDFTLSISSLEPEDFAVYYCQQRTNWSITFGQGTRLEIK
notes: also called IgG1-6003-1320; Antibody 1320
- IC50: 32 nM
